Assay results reported in article PMC10470887.

Target: SpGrx3 R47F mutant (Sphingomonas sp. PAMC 26621)
Test: SEC; Superdex 200 prep grade XK16 column; 50 mM Tris·HCl, 50 mM NaCl, pH 8.0; molecular weight against a protein standard mix

- stoichiometry N: 2
Substance: SpGrx3 R47F mutant (enzyme)
